This is an account of results in the DeepSol protein solubility set.

The series in a line: soluble on expression in E. coli; label from the status in PepcDB or PDB records.
For the sequence “GDWLDLNTTSSVETGQAIVTLDDAQIALNGIYRLASGHSYYGDNYWYYGDCRAADVQARITKGDGKRVSPYYEYNVLASDNLNIVLPWNTVYKVIRQTNNLIQKIESGSIQSSDTKELNRIKSEALVMRGLSLFNLTRLFGMPYTNDKGASLGVPIETSPSDPTHKPSRSTVAQCYEQVVSDMSNALSGLRQETSNGYINYWAAQALLSRVYLNMGEYQKAYDAATDVIKNNGGRYQLYSYEEYPNVWGQDFQSESLFELYITLSEPSGGTGGEGAPMVYANEATVDWNNLILSEDFLNLLNEDPKDVRHCLTKESVIENNTGLPAAAMHEKVYLAKFPGKTGDDPKTNNICIIRLSEVYLNAAEAGLKKGTDIEEAQGYLNDIISRRTTDTSQQVSTETFTLDRILKERRKELVGEGEVFYDYLRNGLAIERKGSWHLETLKASNAQKIEATDLRIALPIPQSEIDANPNIQQNPR”, the “soluble on expression in E. coli” value is on record as “soluble”.
Turning to “MSLQPALGVLVASSQPLDQYVVRHPDFFADASPEHARTAPDQPLILFDHIRCAAFELPFIASEPFGPIDPLVFLEVLAESEVIHQEGDRWEWIADSYPATAVSLRSVADGNFVVVDKSDGKQQIIAEVDYSAAALTLYEGAIHMVQSRPYQVERLDWAGRKAYVTRTHVDYYTDSIDYTKLKVLDRFDGGVAGRGDSHHGEVHVVRRVSGYKKIRYYTHENIGYGPVNLPDQELHTTAVWWQLPQATLGKAFEGHHHHHH”, the “soluble on expression in E. coli” value is given as “soluble”.
Under “MAIADEFRQLQTRLLECWEGTETFIPELPRGPGGIERDILVVPSLSFPQPELGKITGYTHYEERQLYTLIQLRNPRTRMIYVTSQPLHPSIVDYYLDLLPGVPSCHARDRLLLLATYDRSDKPLTAKILERPRLLERIRQALRPNQAYMVCFNSTPLERELAVRLGVPLYSTDPDLLYWGTKAGSRELFAAAGIRHPIGSGFLQGVPELVRAIAHLQEKCPELQQLVVKLNEAFSGEGNALLDLRPLRPLGSPHTPDHLQRIENSLEDMVFQAPNETWASYRQRFTDLGGIVEAFVEGTVKRSPSVQGCITPKGSVEIVSTHEQLLNAPTGQIFIGCEFPAHADYRQQLQELGQKVGTYLAQQGVIGCFSVDVVATQTTEGWELYAIEINLRKGGTTHPFMTLKFLTDGHYELASGRFYSKHRRPKYYIASDNLCQPHYRGLLPNDLLDMIARYHLHFDSSTETGTVFHLMGALSEFGKLGLVSIGNTPEEAQAIYNQTIGVLDAAALLEHHHHHH” stands “not soluble”; under “MTNHEQVLTDYLAAFIEELVQAGVKEAIISPGSRSTPLALMMAEHPTLKIYVDVDERSAGFFALGLAKASKRPVVLLCTSGTAAANYFPAVVEANLSQIPLIVLTADRPHELRNVGAPQAMDQLHLYGSHVKDFTDMALPENSDEMLRYAKWHSSRAVDIAMKTPRGPVHLNFPLREPLVPILEPSPFTATGKKHHHVH”, “not soluble”; under “FLNNKHREKGLKAEEEACGFLKSLGFEMVERNFFSQFGEIDIIALKKGVLHFIEVKSGENFDPIYAITPSKLKKMIKTIRCYLSQKDPN”, “not soluble”.
For the sequence “MHHHHHHPMEPEIKIVNVVVSTKIGDNIDLEEVAMILENAEYEPEQFPGLVCRLSVPKVALLIFRSGKVNCTGAKSKEEAEIAIKKIIKELKDAGIDVIENPEIKIQNMVATADLGIEPNLDDIALMVEGTEYEPEQFPGLVYRLDDPKVVVLIFGSGKVVITGLKSEEDAKRALKKILDTIKEVQEL”, the “soluble on expression in E. coli” value is “soluble”.
Under “MRSQRIVHIVSCHAEGEVGDVIVGGVAAPPGATLWEQSRWIARDQDLRNFVLNEPRGGVFRHANLLVPAKDPRAQMGWIIMEPADTPPMSGSNSLCVATVLLDSGILPMREPLTRLLLEAPGGLIEARAECRDGKAERVEIRNVPSFADRLDAWIEVEGLGSLQVDTAYGGDSFVIADARRLGFALRADEAAELVATGLKITHAANEQLGFRHPTNPDWDHLSFCQLAAPPERRDGVLGANNAVVIRPGKIDRSPCGTGCSARMAVLQAKGQLRVGERFVGRSIIGSEFHCHIESLTELGGRPAILPCLSGRAWITGIHQYLLDPDDPWPQGYRLSDTWPGGHC” stands “not soluble”; under “MMSNRSDFIVPDEAAVKRAASVNFHLEPLRPWLDDPQITEVCVNRPGEVFCERASAWEYYAVPNLDYEHLISLGTATARFVDQDISDSRPVLSAILPMGERIQIVRPPACEHGTISVTIRKPSFTRRTLEDYAQQGFFKHVRPMSKSLTPFEQELLALKEAGDYMSFLRRAVQLERVIVVAGETGSGKTTLMKALMQEIPFDQRLITIEDVPELFLPDHPNHVHLFYPSEAKEEENAPVTAATLLRSCLRMKPTRILLAELRGGEAYDFINVAASGHGGSITSCHAGSCELTFERLALMVLQNRQGRQLPYEIIRRLLYLVVDVVVHVHNGVHDGTGRHISEVWYDPNTKRALSLQHSEKT”, “soluble”; under “MKQVCVLGNGQLGRMLRQAGEPLGIAVWPVGLDAEPAAVPFQQSVITAEIERWPETALTRQLARHPAFVNRDVFPIIADRLTQKQLFDKLHLPTAPWQLLAERSEWPAVFDRLGELAIVKRRTGGYDGRGQWRLRANETEQLPAECYGECIVEQGINFSGEVSLVGARGFDGSTVFYPLTHNLHQDGILRTSVAFPQANAQQQARAEEMLSAIMQELGYVGVMAMECFVTPQGLLINELAPRVHNSGHWTQNGASISQFELHLRAITDLPLPQPVVNNPSVMINLIGSDVNYDWLKLPLVHLHWYDKEVRPGRKVGHLNLTDSDTSRLTATLEALIPLLPPEYASGVIWAQSKFG”, “soluble”.
As to “MKVDKRIEAVTKFLESLGTVEDYTEDVAVKYRNLILKSYELYENKYNDTVDDSLCIEVWSNGTYVVTNEDLSFDCESEEDLQKLKELFVNTSFYITINELNKVGHKATLSVKAKAKNLRKLGQLIKEYRSCNCKYLKDKVTEIIGDDGRVYLDRISERMD”, the “soluble on expression in E. coli” value was “not soluble”.
Under “AFSSTTTLTPSNVASREFIDTRAPNPEICVQYGASAMVMDARLFVTLNPFNVYVAQPNIRPGCVLRQNNWAILENKKLVTSDQVRECKNRLNTFGFTGNLDSEKPDIRCIYQNESAQNFFLSQPGAVGPSQDTERF” stands “not soluble”; under “MKIGDVEVRDDVFNVKVKKHVLWEVVKWQLAKRRQGTHSTKTRGEVAYSGRKILPQKGTGNARHGERGVNIFVGGGVAHGPKPRDYEYPLPKRVRKLGLKMALSDKARNNAIIFVDNIDLGKKPKTKKAIEFLKNLGVEKEKVLVVIPEKADVLYKSFRNLPNVRVLLPEGLNVYDVLWANKLVIQKDCLDRIYKKVEA”, “soluble”.
Under “MGSDKIHHHHHHMKRSGKVYIIGAGPGEEELITLKAIRKMKECTAVLYDRLVGQGILKYLNEKCEIYYCGKEPGCHYKTQDEINEMIIKLAKEGHIVGRIKGGDPYIFGRGGEEGLSLLKENIEFEVISGVTSPVAVLNYAGIPVTHRGIARSFHVFTAKTANDDSINFSAAAKIDGTLIFLMGYRQLNDITRKLIENGMDSKMPCAVVMRGTTSLQKKVIGNLSDIKEKCDNANMTSPCIIVVGKVVGFNQQLNWYEKKPLFGRNICITRSKNQSKTMREELLDLGAEVTEVHSIEIENTASNLEEYINKISEYDYIILTSVNAVEVLFDYLASKDYDVRKVRAKFAVIGNATKEALKKRGIVPEIVSRKHNGEGLFDEIRGYLKKDDKIFIPRSENSRKYIKEQLVSLGLSVDECFIYRTVPGKLYDKAAFENADTIVFTSPSTVKNMIALFGEKNIKKKSIIAIGPITGRELGKINAEYSTCSECSVDAIIRECLNSDK” stands “not soluble”; under “MSSPRHVFYISDRTGLTAENIGEALLNQFGNLSFKRHTHPFVDTPEKARAVVEKVNRSRQENGQRPIAFVSVVDDEIRRIIKGADAFQINFFETFLGLLEKELNTEATASEQGHHSIGNTKRYDARMEAVNFSLNHDDGVSDKNLQEADVILMGVSRSGKTPTCLYLALQYGIRAANYPLIPDDLESADLPRMVKPYRDKLFGLTIQPERLQAIRQERRPNSTYAKIDTCRSEVADAQSMFRRHGIPFANTTDKSVEELAVHILQACKLKRRFLEHHHHHH”, “soluble”; under “MNMLKKSLTALVLLGGLGAPVVAHATPAAAEAASEVQVAWVDGKVRISWTEAAGIPNTVSLELPGKPRKTLGTTTAAGDNQLVVEPSALEPTNDPASVAKIVVSDPSTAEARSAGFDRYVRGATPLAPVMTGTGVLNWQFPADTAVDSTPNDPLDVDAPVQFVPKLTLGVTPGTTDECKTVVLPATTAPYGSVPKQISPYALELLNVSEWGQSKLAGVRVRSSSTAFSTPASTGYGTRITMTGSILLQTLQNPAAGNCEDVTDTAALGGHELALQAREDGGAWYAVGVSKTDAQGKYQFVVSNPGARQYRAVLKTAAASGAAHYQSISAERSVRATPQVIDASFADDTITLGQQPNARVTVAPYGSHQVALQFKNASGQWQGLMYRTLSAGRAESGPFAFSRLGDTQFRWWVASSTSTTGLPVDAGYTYPFTLHVS”, “not soluble”.
For “MNELQFQQAAGISAGLSARWFPHIDAAMSEFGITAPLDQAMFIAQTGHESAGFTVLRESFNYSVEALKKTFGKRLTPYQCEMLGRIDGRQVAHQPQIANLVYGGRMGNKDAGDGWKYRGRGLIQITGLENYTRCGVALKLDLVANPGQLELERHAARSAAWFFVTKGCLKYSGDLVRVTQIINGGQNGFGDRRERFEKAKSVLV”, the “soluble on expression in E. coli” value is listed as “not soluble”.
For the sequence “MIYQKQRNTAETQLNISISDDQSPSHINTGVGFLNHMLTLFTFHSGLSLNIEAQGDIDVDDHHVTEDIGIVIGQLLLEMIKDKKHFVRYGTMYIPMDETLARVVVDISGRPYLSFNASLSKEKVGTFDTELVEEFFRAVVINARLTTHIDLIRGGNTHHEIEAIFKAFSRALGIALTATDDQRVPSSKGVIE”, the “soluble on expression in E. coli” value is “soluble”.
Under “MGSDKIHHHHHHMKISTHELIAVVSQFNPWWRGESIQDLPTWHRAAYQELELWLIKPPVPRAIFLSGARQIGKTTLLLQAIDKLLKEGVKPGNILYVTFDHPLIKMSDIDAVLEAWREREPKTGDLEYIFIDEAQFMRSWGTWIKHQVDFSKSRRIFFTGSATPIIEADQESGVGRWHTIRLTTLSFYEYLQIKKIDLPQLPTVKTLRELFEWPQQEFYKVKELAVHYVGHFHEYLLRGGFPQTAQVENITQAQRLLREDIIDKVLKRDMTALFGVRRILELEQTFLYLCMHDGGLLDMTDLCSNLEVKRPTIQNYIFLLEATNLIYRLPPFGYGKDILRAKYKIYLADAAIAPAVLLKDKSILDDPESLGIATETAVFKHLFARYYSQNVRFSYWRGTKDHEVDVVAQIGDQIIPFEVKYRSQHTNAKALKGLLELCKKKSIAHGYVVTKSLDDFGIMKALPEIKTNIMQIPAPLLCYWMGESELRQTFGV” stands “not soluble”.
As to “MGSDKIHHHHHHMSVRVNNLLKLPSLREATVLSGKNQLDTSVASLSFLEVSDMSLFSEKLHKTNEYHAGEILIGSFCAIRHDVVKQCETIRHLHELGEVGLILYYVGIIVPKVAEEVIQLADSLGFILIQMPKNDPTLRYNEVIYEVMKLLVNKNKMASFATDLLEKVSLLPEQNRSVEMTLKILSDFLKVNIALTTYTNEIISTINWPRSTKLPLTKLLYQSQEKVALGETTYFITSQKLPQKDGQTLKLYFIREEEQLTSFEMNQAVEVVQMALNLWGKNYDEVSEYALVQAIINDESDKMYQLAKKLMIDISSVETMWLLPIWQQGQEIHAIQQDLKDFLRYYYQTTIVQQTENYLIVLLGNYLHKQPEATISKEYLQATDYQDYLGEIILCPKVRNTTEVRVSYQTANQVAPFLKRVYPQRKVLSIAEIRTVQQMMTCLQAGEEAIQQRLAVIQPLLKESEQLMTLGTFLLDASSDFNECGERLFVHKNTVKYRISKINEALGYDMTNAAEAYEVYLAMILYRLVTNE”, the “soluble on expression in E. coli” value is “not soluble”.
As for “MHANGIFFVPKYSSKYGKKQQTEKQWPVPEMGWQPGAVNSNFALQSSALILIGGFIRIIKVDSNATSCIHFGGIDAKPLLLQMNAYSLPAAEIRTKNGRIVARVF”, the “soluble on expression in E. coli” value is reported as “not soluble”.
